Assay results published in US11674950B2, “Methods determining and treating cellular resistance to ADP-rtbosylating toxin” (priority 2017, dated 2023).

Key:
DPH1 = assay: Quantitative RT-PCR and Western blot for DPH1; format: cell-based, human
eEF2 = assay: In vitro ADP-ribosylation assay in cell lysates with biotin-NAD+; format: biochemical, human
Procedure: A biochemical assay was next performed to test the ability of tagraxofusp to catalyze ADP-ribosylation in cellular lysates in the presence of exogenous biotin-tagged […] (NAD) as a source of ADP-ribose.
To determine the biochemical mechanism of SL-401 resistance and restoration of sensitivity upon non-cytotoxic treatment with azacitidine, an in vitro ADP-ribosylation assay was developed to perform lysates harvested from human leukemia cells. Briefly, 50 μg of cell lysates were harvested and mixed with 5 uM NAD+-Biotin (R&D Systems; 4670-500-01), in the presence or absence of 100 ng of SL-401 (or DT) in 35 uL of reaction buffer containing 20 mM Tris-HCl pH 7.4, 1 mM EDTA, and 50 mM DTT. The mixture is incubated for 15 minutes at room temperature and then the reaction is halted by boiling in SDS loading buffer. An SDS polyacrylamide gel is run and proteins are transferred to a PVDF membrane as in a Western blot. Protein levels are determined by traditional western blot. ADP-ribosylation of target proteins is detected by streptavidin-HRP (Abcam ab7403). […] Top blot is ADP-ribose, presumably on eEF2 (band is at same position as eEF2 protein detected by antibody); next, are levels of eEF2, DPH1, and beta-actin protein.

[1] = test system: BPDCN patient-derived xenografts; format: in vivo, mouse; conditions: for time to progression of peripheral blood leukemia burden: two cycles
CAL1 and THP1 cells = assay: Short-term cytotoxicity of azacitidine in parental and SL-401 resistant cells; format: cell-based, human
Procedure: Next, it was tested if azacitidine cooperated with tagraxofusp in AML and BPDCN cells. First, given that azacitidine acts as a cytotoxic chemotherapy at higher doses, experiments were performed to determine whether tagraxofusp-resistant cells were more sensitive to short-term treatment, similar to what was described above (FIGS. 6-8).

DPH1 locus = assay: Bisulfite pyrosequencing of DPH1 locus CpG sites; format: cell-based, human; conditions: azacitidine 300 nM, 2 days on/2 days off over 2 weeks; resistant cells
Procedure: DPH1 expression is known to be regulated by DNA methylation and sensitivity to Pseudomonas exotoxin A was previously shown to be modulated by CpG methylation in the DPH1 locus. To test whether loss of DPH1 is mediated by DNA methylation, bisulfite pyrosequencing of the DPH1 locus in CpG islands (30 individual CpG sites) was performed by EpigenDx analysis (available on the World Wide Web at epigendx.com/d/service/pyrosequencing/) and the % methylated cytosine at each CpG site was quantitated. This analysis was performed in THP1 parental and 2 SL-401 resistant subclones, and CAL1 parental and 2 SL-401 resistant subclones. Data plotted in FIG. 12 are from THP1 cells, and are representative of CAL1. […] Given this finding, it was believed that 5-azacitidine, a DNA methyltransferase inhibitor or “DNA hypomethylating agent” can reverse the aberrant DPH1 hypermethylation and restore DPH1 expression. The parental and resistant cells were also treated with non-cytotoxic, low doses of azacitidine, so called “epigenetic dosing” (300 nM, 2 days on/2 days off) over 2 weeks to determine if the hypermethylation was reversible by DNA methyltransferase inhibition.

[2] = test system: CAL1, SHI1, and THP1 parental and tagraxofusp-resistant cells; assay: MTT viability after conventional chemotherapy (cytarabine, vincristine); format: cell-based, human; conditions: SL-401 resistant vs parental CAL1, SHI1, THP1
Procedure: CAL1, SHI1, and THP1 parental and tagraxofusp-resistant cells were tested in MTT viability assays after exposure to increasing doses of cytarabine (AraC) or vincristine (VCR).

[3] = test system: IL3R (e.g., CD123) positive AML cell lines and primary leukemia cells; conditions: cited from earlier work
THP1 human AML cells [4] = assay: In situ histochemical ADP-ribosylation assay; format: cell-based; conditions: resistant vs parental THP1
[5] = rodents and monkeys; cited from earlier work
[6] = test system: mouse models of human leukemia; conditions: in vivo; cited from earlier work
THP1 human AML cells [7] = assay: Single cell flow cytometric ADP-ribosylation assay; format: cell-based; conditions: resistant vs parental THP1
Procedure: THP1 human AML cells are shown that are parental SL-401 sensitive or SL-401 resistant.
For example, in another embodiment, a flow ADP ribosylation assay may be used to measure the functional activity of the entire diphthamide synthesis pathway (FIG. 20). […] The cells were stained with antibodies (e.g., CD45-APC, CD123-PE) at concentration of 1:100, incubated for 30 min at 4° C., and then washed with FACS buffer 5 minutes. The cells were fixed with 3% paraformaldehyde (PFA), incubated for 20 min at RT, and washed with PBS for 5 minutes. The cells were permeabilized with Saponin (1:10 in H2O, BD Biosciences-“Perm/Wash” solution) for 20 min at 4° C., washed with PBS for 5 minutes, and applied with endogenous Streptavidin block (BD Biosciences) for 20 min at RT. The cells were then washed with PBS for 5 minutes and applied with endogenous Biotin block (BD Biosciences) for 20 min at RT. The cells were then washed with PBS for 5 minutes and applied with protein block for 30 min at RT. The cells were washed twice with FACS buffer. Each wash was for 5 minutes. SL-401/biotin solution was added to the samples and the samples was incubated for 30 min at RT. […] The cells were washed 5 minutes in FACS buffer, resuspended in 300 μl FACS buffer and level of the ADP was detected with the flow assay.

[8] = test system: parental or tagraxofusp-resistant CAL1 cells; assay: Confocal microscopy of internalization of fluorescently tagged SL-401; format: cell-based, human; conditions: 30-60 minutes after exposure, resistant vs parental cells
[9] = 14 days from initiation of treatment, vs vehicle

Nc1ncn([C@@H]2O[C@H](CO)[C@@H](O)[C@H]2O)c(=O)n1 [azacitidine, 5-azacytidine]
DPH1 protein levels after azacitidine (DPH1; Western blot, resistant THP1 clones): partially or fully restored
DPH1 mRNA expression (DPH1; azacitidine 300 nM, 2 days on/2 days off over 2 weeks, quantitative RT-PCR): partially restored mRNA expression
tagraxofusp-mediated ADP ribosylation after azacitidine (eEF2; long-term azacitidine-treated resistant THP1 cells): complete restoration of tagraxofusp-mediated ADP ribosylation activity
time to progression of peripheral blood leukemia burden ([1]; four-arm study): prolonged the time to progression of peripheral blood leukemia burden
azacitidine dose response, resistant vs parental (CAL1 and THP1 cells; CAL1 parental and 3 SL-401 resistant subclones): increased sensitivity in resistant cells
azacitidine cytotoxicity, resistant vs parental (CAL1 and THP1 cells; THP1, short-term (72 hour), cytotoxic doses): more sensitive to cytotoxic doses of azacitidine than parental cells
DPH1 CpG DNA methylation (DPH1 locus): reduction in the DPH1 CpG DNA hypermethylation

Nc1ccn([C@@H]2O[C@H](CO)[C@@H](O)[C@@H]2O)c(=O)n1 [cytarabine]
sensitivity of SL-401 resistant cells to chemotherapy [2]: more sensitive to chemotherapy compared to the parental cells

CC[C@]1(O)C[C@H]2CN(CCc3c([nH]c4ccccc34)[C@@](C(=O)OC)(c3cc4c(cc3OC)N(C=O)[C@H]3[C@@](O)(C(=O)OC)[C@H](OC(C)=O)[C@]5(CC)C=CCN6CC[C@]43[C@@H]65)C2)C1 [vincristine]
sensitivity of SL-401 resistant cells to chemotherapy [2]: more sensitive to chemotherapy compared to the parental cells

B1: tagraxofusp (protein)
chain: MGADDVVDSSKSFVMENFSSYHGTKPGYVDSIQKGIQKPKSGTQGNYDDDWKGFYSTDNKYDAAGYSVDNENPLSGKAGGVVKVTYPGLTKVLALKVDNAETIKKELGLSLTEPLMEQVGTEEFIKRFGDGASRVVLSLPFAEGSSSVEYINNWEQAKALSVELEINFETRGKRGQDAMYEYMAQACAGNRVRRSVGSSLSCINLDWDVIRDKTKTKIESLKEHGPIKNKVISESPNKTVSEEKAKQYLEEFHQTALEHPELSELKTVTGTNPVFAGANYAAWAVNVAQVIDSETADNLEKTTAALSILPGIGSVMGIADGAVHHNTEEIVAQSIALSSLMVAQAIPLVGELVDIGFAAYNFVESIINLFQVVHNSYNRPAYSPGHKTRPHMAPMTQTTSLKTSWVNCSNMIDEIITHLKQPPLPLLDFNNLNGEDQDILMENNLRRPNLEAFNRAVKSLQNASAIESILKNLLPCLPLATAAPTRHPIHIKDGDWNEFRRKLTFYLKTLENAQAQQTTLSLAW
cytotoxicity [3]: potently and selectively cytotoxic
SL-401-dependent ADP ribosylation activity (THP1 human AML cells [4]): diminished in the SL-401 resistant cells
ADP-ribosylation in lysates (eEF2; parental cells): caused ADP-ribosylation of a single protein
ADP-ribosylation in lysates (eEF2; tagraxofusp-resistant cells): unable to catalyze ADP-ribosylation of any proteins in the lysate
safety [5]: Safety was shown at therapeutically active doses
anti-tumor efficacy [6]: in vivo anti-tumor efficacy
spleen size [1, 9]: reduction in splenomegaly
splenic infiltration [1, 9]: decreased splenic infiltration of human BPDCN cells
mice remaining at 200 days ([1]; four-arm study, n=10 mice per arm): one
progression-free survival ([1]; one cycle, daily for 5 days, three PDXs combined, vehicle 12 days): 48 days
overall survival ([1]; one cycle, daily for 5 days, three PDXs combined, vehicle 35 days): 71 days
reduction of leukemia burden vs vincristine/dexamethasone ([1]; peripheral blood flow cytometry, most animals): longer sustained reduction in human BPDCN leukemia burden
residual CD45+CD123+ leukemia at 200 days ([1]; peripheral blood, spleen, and bone marrow): detectable leukemia cells in spleen and bone marrow
effect of a second cycle ([1]; second cycle at progression): effective
response of PDX cohorts ([1]; three cohorts, 100 ug/kg/day intraperitoneally x5 days): prolonged progression-free and overall survival
time to progression of peripheral blood leukemia burden ([1]; four-arm study): prolonged the time to progression of peripheral blood leukemia burden
SL-401-dependent ADP ribosylation activity (THP1 human AML cells [7]): diminished in the SL-401 resistant cells

B2: Tagraxofusp-APC: APC-tagged, fluorescently labeled tagraxofusp used for confocal microscopy (conjugate)
chain: B1 chain
drug internalization [8]: internalized equally in resistant and parental cells
